One block for each substance: values may come before it.
Columns and labels:
[1] = target: γ-TuSC^Spc98Δ1–156 [S. cerevisiae]; test: GST pull-down, immunoblot anti-Tub4 (bound Tub4), Li-cor quantification; settings: 300 nM Spc110 1-220; read off a plot; scale: %
[2] = target: γ-TuSC^Spc98Δ1–156 [S. cerevisiae]; test: GST pull-down, immunoblot anti-His (bound Spc97/Spc98), Li-cor quantification; settings: 300 nM Spc110 1-220; read off a plot; scale: %
[3] = target: γ-tubulin small complex (γ-TuSC) [S. cerevisiae]; test: GST pull-down, immunoblot anti-Tub4 (bound Tub4), Li-cor quantification; settings: 300 nM Spc110 1-220; read off a plot
[4] = target: γ-tubulin small complex (γ-TuSC) [S. cerevisiae]; test: GST pull-down, immunoblot anti-His (bound Spc97, Spc98), Li-cor quantification; settings: 300 nM Spc110 1-220; read off a plot
[5] = target: γ-TuSC^Spc98Δ1–156, P53378;P38863;P53540; test: GST pull-down, immunoblot anti-Tub4 (bound Tub4), Li-cor quantification; settings: 300 nM Spc110 1-220; parent: est. 42; read off a plot; scale: %
[6] = target: γ-tubulin small complex (γ-TuSC), P53378;P38863;P53540; test: as above; settings: 300 nM Spc110 1-220; read off a plot
[7] = target: γ-TuSC^Spc98Δ1–156, P53378;P38863;P53540; test: GST pull-down, immunoblot anti-His (bound Spc97/Spc98), Li-cor quantification; settings: 300 nM Spc110 1-220; parent: est. 6; read off a plot; scale: %
[8] = target: γ-tubulin small complex (γ-TuSC), P53378;P38863;P53540; test: as above; settings: 300 nM Spc110 1-220; read off a plot
[9] = target: γ-tubulin small complex (γ-TuSC) (S. cerevisiae) (UniProt P53378); test: SEC; γ-TuSC mixed with GST-Spc110^1–220 variant in 1:4 molar ratio (2.3:9.3) in TB150 buffer, 1 hr at 4°C, Superdex 200 10/300 or Superose 6 10/300; shift of γ-TuSC to the void volume; fractions by SDS-PAGE and silver staining; void-volume fraction also by negative-stain electron microscopy
[10] = target: GST-Spc110^1–220-2D (S. cerevisiae) (UniProt P32380)
[11] = target: GST-Spc110^1–220-3D (S. cerevisiae) (UniProt P32380)
[12] = target: GST-Spc110^1–220-5D (S. cerevisiae) (UniProt P32380)
[13] = target: γ-tubulin small complex (γ-TuSC) (S. cerevisiae) (UniProt P53378); test: SEC; as a3 (TB150, Superose 6 10/300) but with the concentrations of γ-TuSC and Spc110^1–220 variants doubled (Figure 2—figure supplement 2A)

response [1]: 42
response [2]: 6
Substance: GST-Spc110^1–220 (wild type, from E. coli, non-phosphorylated) mutant S36D; S60D; T64D; T68D; S91D [S. cerevisiae] / γ-TuSC^Spc98Δ1–156 [S. cerevisiae] chain 1 S36D, chain 1 S60D, chain 1 T64D, chain 1 T68D, chain 1 S91D

response [3]: 11000 RU
response [4]: 8300 RU
Substance: GST-Spc110^1–220 (wild type, from E. coli, non-phosphorylated) mutant S36D; S60D; T64D; T68D; S91D [S. cerevisiae] / γ-tubulin small complex (γ-TuSC) [S. cerevisiae] chain 1 S36D, chain 1 S60D, chain 1 T64D, chain 1 T68D, chain 1 S91D

response [3]: 3300 RU
response [4]: 3300 RU
Substance: GST-Spc110^1–220 (wild type, from E. coli, non-phosphorylated) mutant S36D; S91D [S. cerevisiae] / γ-tubulin small complex (γ-TuSC) [S. cerevisiae] chain 1 S36D, chain 1 S91D

response [3]: 10000 RU
response [4]: 7400 RU
Substance: GST-Spc110^1–220 (wild type, from E. coli, non-phosphorylated) mutant S60D; T64D; T68D [S. cerevisiae] / γ-tubulin small complex (γ-TuSC) [S. cerevisiae] chain 1 S60D, chain 1 T64D, chain 1 T68D

response [5]: 34
percent of parent [6]: 49%
response [7]: 3
percent of parent [8]: 45%
Substance: GST-Spc110^1–220-5D (from UniProt P32380) CM1-QA

response [5]: 32
percent of parent [6]: 40%
response [7]: 9
percent of parent [8]: 16%
Substance: GST-Spc110^1–220-5D (from UniProt P32380) T18D; CM1-QA

stoichiometry N [9]: > 14
in vitro MT nucleation activity (MTs/field normalised to buffer only); 3 μM γ-TuSC pre-incubated with 15 μM GST-Spc110^1–220 variant; compared to the buffer control and γ-TuSC alone [10]: 3 fold
in vitro MT nucleation activity (MTs/field normalised to buffer only); 3 μM γ-TuSC pre-incubated with 15 μM GST-Spc110^1–220 variant; compared to the buffer control and γ-TuSC alone [11]: 3 fold
in vitro MT nucleation activity (MTs/field normalised to buffer only); 3 μM γ-TuSC pre-incubated with 15 μM GST-Spc110^1–220 variant; compared to the buffer control and γ-TuSC alone [12]: 3 fold
stoichiometry N [13]: 2
Substance: γ-tubulin small complex (γ-TuSC), P53378 1-473; P38863 1-823; P53540 1-846
